Measurements published in article PMC2673055 (The Journal of biological chemistry, 2007).
Where two headings read alike, the source gives them in different places. Each block holds one molecule with its values, some of them ahead of it.

Legend:
Assay in all cases: SPR
[1] = target: recombinant matrilin-3 A-domain (human) (UniProt O15232)
[2] = target: T1, full-length type IX collagen (human, UniProt P20849 24-921; Q14055 24-689; Q14050 26-684)
[3] = target: T1, full-length type IX collagen; remark: listed apart in the source

- Kd [1]: 3.25 nM
Molecule: vitreous form of human type IX collagen (from UniProt Q14055 24-689; Q14050 26-684) (complex)

- Kd [2]: 1.37 nM
B1: recombinant matrilin-3 A-domain (domain or fragment, human, UniProt O15232 76-263, looked up)
chain: VCKSRPLDLVFIIDSSRSVRPLEFTKVKTFVSRIIDTLDIGPADTRVAVVNYASTVKIEFQLQAYTDKQSLKQAVGRITPLSTGTMSGLAIQTAMDEAFTVEAGAREPSSNIPKVAIIVTDGRPQDQVNEVAARAQASGIELYAVGVDRADMASLKMMASEPLEEHVFYVETYGVIEKLSSRFQETFC

- Kd [3]: 1.5 nM
B2: full-length matrilin-3 (natural protein, UniProt O15232 29-486, looked up)
chain: DPVARPGFRRLETRGPGGSPGRRPSPAAPDGAPASGTSEPGRARGAGVCKSRPLDLVFIIDSSRSVRPLEFTKVKTFVSRIIDTLDIGPADTRVAVVNYASTVKIEFQLQAYTDKQSLKQAVGRITPLSTGTMSGLAIQTAMDEAFTVEAGAREPSSNIPKVAIIVTDGRPQDQVNEVAARAQASGIELYAVGVDRADMASLKMMASEPLEEHVFYVETYGVIEKLSSRFQETFCALDPCVLGTHQCQHVCISDGEGKHHCECSQGYTLNADKKTCSALDRCALNTHGCEHICVNDRSGSYHCECYEGYTLNEDRKTCSAQDKCALGTHGCQHICVNDRTGSHHCECYEGYTLNADKKTCSVRDKCALGSHGCQHICVSDGAASYHCDCYPGYTLNEDKKTCSATEEARRLVSTEDACGCEATLAFQDKVSSYLQRLNTKLDDILEKLKINEYGQIHR
